Measured values published in the Human Domainome abundance scans (Beltran et al. 2025).

B1: Tumor protein p73, residues 487 to 549; numbered along this chain, O15350 (parent)
chain: YHADPSLVSFLTGLGCPNCIEYFTSQGLQSIYHLQNLTIEDLGALKIPEQYRMTIWRGLQDLK

Variants of: B1
Test: abundance fitness (aPCA) (normalised: wild type 0, dead -1); higher = more abundant; growth selection in yeast, the domain comes from the species named
Conditions: Homo sapiens

Abundance fitness: each site, then its substitutions
C16: F -0.144 | D -0.923 | Q -0.504 | M 0.002 | I 0.146 | H -0.047 | P -1.01 | Y -0.078 | K -0.322 | R -0.407 | G -0.754 | S -0.389 | A -0.176 | W -0.773 | E -0.8 | T -0.163
T24: V -0.077 | L -0.037 | M 0.018 | P -0.461 | Y -0.206 | S -0.007 | R -0.083 | A -0.02 | K -0.013 | F -0.212 | H -0.123 | C -0.097 | N -0.224 | Q -0.086 | E -0.108 | W -0.187 | D -0.198
S9: Q 0.095 | N 0.086 | C -0.312 | W -0.411 | V -0.373 | K -0.017 | H -0.345 | T -0.052 | F -0.194 | L -0.131 | M -0.207 | G 0.103 | I -0.347 | P -0.134 | R 0.048 | A -0.101 | D -0.114 | Y -0.237 | E -0.019
F23: E -1.05 | D -1.18 | M -0.306 | I -0.277 | V -0.618 | G -0.995 | T -0.978 | Q -0.801 | S -1.03 | L -0.182 | K -0.975 | R -1.14 | N -0.733 | Y -0.638 | C -0.315 | P -0.907 | A -0.971 | H -0.81 | W -0.966
L11: N -1.12 | Y -0.518 | W -0.914 | S -1 | G -0.923 | Q -0.053 | I 0.039 | P -1.17 | H -0.806 | F -0.031 | C -0.13 | T -0.858 | A -0.599 | E -0.825 | M -0.115 | K -0.681 | D -1.14
P17: K 0.075 | H -0.031 | N -0.154 | W -0.14 | F 0.036 | M -0.007 | R -0.024 | V 0.007 | E 0.047 | A -0.081 | Q 0.106 | Y 0.017 | C -0.08 | I -0.122 | T 0.028 | S 0.015 | D -0.044 | L 0.023
G13: L -0.124 | Y -0.185 | I -0.138 | E 0.047 | C -0.142 | H 0.11 | S 0.034 | N 0.216 | Q 0.024 | W -0.315 | V -0.223 | A -0.021 | M -0.075 | P -0.183 | R 0.008 | F -0.172 | T -0.012
F10: C -0.588 | K -1.32 | H -0.971 | P -0.748 | R -0.962 | D -1.06 | M -0.424 | L -0.307 | E -1.02 | Y -0.294 | W -0.296 | N -0.804 | S -0.867 | A -0.535 | T -0.823 | Q -0.865
G15: H -0.26 | C -0.226 | L -0.616 | V -0.606 | N -0.002 | R -0.153 | W -0.854 | T -0.549 | Q -0.124 | Y -0.462 | F -0.508 | K -0.062 | I -0.937 | A -0.124 | S -0.17 | M -0.463
C19: P -0.97 | L 0.047 | F 0.031 | G -0.559 | Q 0.028 | E -0.236 | W -0.454 | I -0.055 | V 0.052 | D -0.699 | Y -0.233 | N -0.511 | K -0.726 | R -0.941 | A -0.033 | M 0.048 | H -0.399
T12: E 0.114 | S -0.05 | V -0.061 | C -0.386 | N 0.117 | W -0.216 | Q 0.031 | I -0.032 | G 0.1 | K 0.087 | M 0.021 | F -0.092 | L -0.146 | R 0.058 | D 0.236 | P -1.1 | H 0.01
L7: V -0.049 | G -0.936 | W -0.847 | S -0.831 | A -0.257 | M -0.023 | E -0.512 | P -0.782 | C -0.4 | T -0.157 | F -0.266 | K -0.984 | Q -1.01 | H -0.969 | R -1.01
S25: C 0.012 | K 0.046 | W -0.361 | P -0.179 | I -0.195 | F -0.197 | L -0.055 | N 0.001 | Y -0.266 | M -0.051 | E 0.129 | A 0.03 | Q 0.051 | D -0.074 | G 0.029
E21: N -0.037 | S -0.003 | R -0.009 | A -0.051 | H -0.089 | P -0.053 | Y -0.042 | K -0.048 | I -0.138 | D 0.012 | V -0.018 | W -0.087 | T -0.054 | G 0.034 | C -0.182
I20: F -0.257 | K -0.185 | G -0.269 | L 0.038 | Y -0.1 | M 0.003 | W -0.36 | N -0.282 | T -0.003 | H -0.069 | E -0.057 | V 0.009 | Q -0.082 | A -0.061 | R -0.111 | P -0.626 | C -0.074 | S -0.049
Y22: R -0.042 | D -0.101 | E -0.107 | L 0.009 | G -0.173 | K -0.047 | N 0.002 | W -0.261 | P -0.069 | M -0.026 | T -0.04 | I -0.108 | A -0.035 | F 0.002 | H 0.031 | V -0.079
V8: Q 0.037 | K 0.235 | G 0.228 | I -0.053 | L 0.137 | C 0.006 | H -0.024 | R 0.132 | T 0.117 | S 0.005 | E 0.222 | A 0.106 | M 0.137 | D 0.143 | W 0.083 | N -0.052 | P 0 | Y -0.016 | F -0.045
S6: R 0.013 | Y -0.197 | T -0.052 | V -0.027 | W -0.212
L14: G -0.989 | E -0.53 | T -0.307 | K -0.174 | D -0.923 | A -0.193 | V 0.024 | W -0.542 | P -0.949 | Y -0.315 | M -0.136 | Q -0.298 | F -0.493 | R -0.353 | S -0.407 | I 0.009 | H -0.231
Q26: D -0.2 | I -0.163 | F -0.18 | G -0.034 | K 0.032 | H 0.035 | C -0.057 | A 0.079 | E 0.011
N18: T -0.084 | D 0.049 | P -0.288 | Q -0.03 | G 0.061 | E 0.033 | H 0.04 | C -0.125 | S -0.12 | M -0.163 | V -0.055 | A 0.042 | Y -0.167 | K -0.163 | L -0.139 | I 0.005
